Substitutions are numbered along the chain they refer to. Names may count otherwise.
Assays:
[1] = E. coli lysate screen of epPCR/DNA shuffling variants with CS0280; format: biochemical; details: Detection Reagent, 1 mM ATP, 500 μM substrate, 3 mins
Description: (§1) These experiments included lysing E. coli cells expressing each luciferase enzyme variant in Detection Reagent containing 1 mM ATP+500 μM substrate. The cell lysate was incubated at room temperature for 3 mins and luminescence was read. The raw luminescence reading was normalized to the on-plate luminescence of ATG-2889, which was used as a control in this screen.

[2] = E. coli lysate screen of epPCR/DNA shuffling variants with CS0333; format: biochemical; details: Detection Reagent, 1 mM ATP, 500 μM substrate, 3 mins
Description: as §1

[3] = Differential scanning fluorimetry (DSF) analysis; format: physicochemical; details: Table 9A
Method in brief: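 Enzymes mixed with Sypro Orange at 5× final, heated 30–95° C at 1° C per minute with fluorescence read every 60 s. Storage buffer 50 mM HEPES pH 7.5, 100 mM NaCl, 2 mM EDTA, or for luciferase variants 20 mM HEPES pH 7.5, 200 mM NaCl, 1 mM EDTA; per-minute fluorescence change plotted against temperature.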

[4] = Effect of individual mutations: maximum luminescence with CS0333; format: biochemical; details: 10 fM to 1 mM CS0333; Detection Reagent (DR) buffer
Description: Experiments were also conducted to evaluate and compare the activities of the various luciferase enzyme variants, including the effects of individual amino acid mutations. To evaluate the effect of individual mutations on luciferase enzyme variants, 0.005 mg/ml luciferase enzyme variant was mixed with 1 mM ATP+10 fM to 1 mM CS0333 in Detection Reagent (DR) buffer.

B1: C4598F8: SEQ ID NO: 60; H244W+T344A+I396K+I109V+V262A+V287I+K309N (protein)
chain: MADKNILYGPEPFYPLEDGTAGEQMFDALSRYAAIPGCIALTNAHTKENVLYEEFLKLSCRLAESFKKYGLKQNDTIAVCSENSLQFFLPVIASLYLGIIVAPVNDKYVERELIHSLGIVKPRIVFCSKNTFQKVLNVKSKLKSIETIIILDLNEDLGGYQCLNNFISQNSDSNLDVKKFKPYSFNRDDQVASIMFSSGTTGLPKGVMLTHKNIVARFSIAKDPTFGNAINPTSAILTVIPFHWGFGMMTTLGYFTCGFRVALMHTFEEKLFLQSLQDYKVESTLLIPTLMAFLAKSALVEKYDLSHLNEIASGGAPLSKEIGEMVKKRFKLNFVRQGYGLTEATSAVLITPKGDAKPGSTGKIVPLHAVKVVDPTTGKILGPNEPGELYFKGPMKMKGYYNNEEATKAIIDNDGWLRSGDIAYYDNDGHFYIVDRLKSLIKYKGYQVAPAEIEGILLQHPYIVDAGVTGIPDEAAGELPAAGVVVQTGKYLNEQIVQDYVASQVSTAKWLRGGVKFLDEIPKGSTGKIDRKVLRQMLEKHTNGHHHHHHHH
[1]
  Normalized luminescence (Mutant RLU/ATG2889 RLU) with CS0280: 5.88
[2]
  Normalized luminescence (Mutant RLU/ATG2889 RLU) with CS0333: 4.91

B2: C4608E7: SEQ ID NO: 63; H244W+T344A+I396K+K121N+N228D+V287I (protein)
chain: B1 chain with V109I, K121N, N228D, A262V, N309K
[1]
  Normalized luminescence (Mutant RLU/ATG2889 RLU) with CS0280: 5.26
[2]
  Normalized luminescence (Mutant RLU/ATG2889 RLU) with CS0333: 6.86

B3: C4629G5: SEQ ID NO: 67; H244W+T344A+I396K+I236V (protein)
chain: B1 chain with V109I, I236V, A262V, I287V, N309K
[1]
  Normalized luminescence (Mutant RLU/ATG2889 RLU) with CS0280: 5.06
[2]
  Normalized luminescence (Mutant RLU/ATG2889 RLU) with CS0333: 2.26

B4: C4601C8: SEQ ID NO: 61; H244W+T344A+I396K+S193P (protein)
chain: B1 chain with V109I, S193P, A262V, I287V, N309K
[1]
  Normalized luminescence (Mutant RLU/ATG2889 RLU) with CS0280: 4.53
[2]
  Normalized luminescence (Mutant RLU/ATG2889 RLU) with CS0333: 3.32

B5: C4584G5: SEQ ID NO: 57; H244W+T344A+I396K+K107Q+L305F (protein)
chain: B1 chain with K107Q, V109I, A262V, I287V, L305F, N309K
[1]
  Normalized luminescence (Mutant RLU/ATG2889 RLU) with CS0280: 4.39
[2]
  Normalized luminescence (Mutant RLU/ATG2889 RLU) with CS0333: 3.42

B6: C4580E9: SEQ ID NO: 54; H244W+T344A+I396K+N228D+V287I (protein)
chain: B1 chain with V109I, N228D, A262V, N309K
[1]
  Normalized luminescence (Mutant RLU/ATG2889 RLU) with CS0280: 4.00
[2]
  Normalized luminescence (Mutant RLU/ATG2889 RLU) with CS0333: 6.51

B7: MK0124: SEQ ID NO: 91; H244W+T344M+I396K+S193A+N228D+L305F+S306P+I109V (protein)
chain: B1 chain with S193A, N228D, A262V, I287V, L305F, S306P, N309K, A344I
[3]
  DSF Tm (° C.): 70 °C
[4]
  Vmax (RLU) with CS0333: 4,270,690 RLU
